Laboratory results taken from patent US8367390B2, “Galactanase variants” (Novozymes A/S, priority 2002, dated 2013).

B1: AAGAL: GH Family 53 galactanase from Aspergillus aculeatus, SEQ ID NO: 3 (wild type parent) (protein, listed as Aspergillus aculeatus)
chain: ALTYRGADISSLLLLEDEGYSYKNLNGQTQALETILADAGINSIRQRVWVNPSDGSYDLDYNLELAKRVKAAGMSLYLDLHLSDTWADPSDQTTPSGWSTTDLGTLKWQLYNYTLEVCNTFAENDIDIEIISIGNEIRAGLLWPLGETSSYSNIGALLHSGAWGVKDSNLATTPKIMIHLDDGWSWDQQNYFYETVLATGELLSTDFDYFGVSYYPFYSASATLASLKTSLANLQSTYDKPVVVVETNWPVSCPNPAYAFPSDLSSIPFSVAGQQEFLEKLAAVVEATTDGLGVYYWEPAWIGNAGLGSSCADNLMVDYTTDEVYESIETLGEL
modifications: mat_peptide (1)..()
B2: BLGAL: GH Family 53 galactanase from Bacillus licheniformis, SEQ ID NO: 4 (wild type parent) (protein, listed as Bacillus licheniformis)
chain: AHRDSGTAKSGLYVEKVSGLRKDFIKGVDVSSIIALEESGVAFYNESGKKQDIFNTLKEAGVNYVRVRIWNDPYDANGNGYGGGNNDLEKAIQIGKRANANGMKLLADFHYSDFWADPAKQKAPKAWANLNFEDKKTALYQYTKQSLKAMKAAGIDIGMVQVGNETNGGLAGETDWAKMSQLFNAGSQAVRETDSNILVALHFTNPETSGRYAWIAETLHRHHVDYDVFASSYYPFWHGTLKNLTSVLTSVADTYGKKVMVAETSYTYTAEDGDGHGNTAPKNGQTLNNPVTVQGQANAVRDVIQAVSDVGEAGIGVFYWEPAWIPVGPAHRLEKNKALWETYGSGWATSYAAEYDPEDAGKWFGGSAVDNQALFDFKGRPLPSLHVFQYVDTGTPFKN

Key:
[1] = Activity on galactobiose (Gal2); assay type: biochemical; conditions: in 24 hours; buffer, pH and temperature per enzyme
Experimental: (§1) The activity on the galacto-oligosaccharide substrates prepared as described above and on the commercially available galactobiose (Gal2, Megazyme) was studied for the four purified galactanases HIGAL, MTGAL, AAGAL and BLGAL. The buffers and temperatures used were: 25 mM sodium acetate, 0.5 mM CaCl2, 0.005% Triton X-100, pH 6.5 at 37° C. for HIGAL and MTGAL, 50 mM sodium acetate, 1 mM CaCl2, pH 4 at 30° C. for AAGAL and 50 mM Mes, 1 mM CaCl2, pH 6.5 at 30° C. for BLGAL. Enzyme concentrations used were 0.8 μg/ml for HIGAL, 0.2 microgram/ml for MTGAL, and 10 micrograms/ml for AAGAL and BLGAL. With HIGAL and MTGAL substrate concentrations were all 0.25 mg/ml, whereas 0.34 mg/ml Gal2, 0.050 mg/ml Gal3 and 0.067 mg/ml Gal4 were used for AAGAL and BLGAL. Enzyme activity in samples withdrawn after various incubation times was inactivated by heating to 95° C. for 10 min. Compositions of reaction products were analysed using HPAE-PAD (Dionex) applying a PA-100 column and a linear gradient of sodium acetate (0-0.18 M) in 0.15 M NaOH. Response factors of the individual carbohydrates were estimated from reference runs with MeGal3, MeGal4, Gal, Gal2, Gal3 and Gal4. Selected results are shown in Tables 2-8 below (the figures indicating weight percentage of glactooligosaccharides).

[2] = assay type: biochemical
Experimental: as §1

[3] = Activity on galactan, products by HPAEC-PAD; assay type: biochemical; conditions: 30° C.; BLGAL pH 6.5, AAGAL pH 4.0
Experimental: Lupin galactan (Megazyme) was incubated with BLGAL (0.1-10 micrograms/ml) at pH 6.5 (50 mM MES, 1 mM CaCl2) and with AAGAL (0.1-10 μg/ml) at pH 4.0 (50 mM sodium acetate, 1 mM CaCl2) at 30° C. Samples were withdrawn after 45 min to 24 hours and enzyme inactivated by heating to 95° C. for 10 min. Reaction products were analyzed using HPAEC-PAD on a Dionex chromatographic system using a CarboPac PA-100 column and a linear gradient 0 to 0.3 M sodium acetate in 0.15 M NaOH. Purified galacto-oligosaccharides were used to identify products.

[4] = Activity on galactotriose (Gal3); assay type: biochemical; conditions: up to 24 hours; buffer, pH and temperature per enzyme
Experimental: as §1

[5] = pH profile of galactanase activity on lupin AZCL-galactan; assay type: biochemical; conditions: 15 min at 37° C., A590, unit assumed
Experimental: The pH profiles of the purified variants described above were established as follows: Galactanase activity at various pH was measured by mixing 500 μl 4 mg/ml lupin AZCL-galactan (Megazyme, Australia) in water with 500 μl buffer (50 mM sodium acetate, 50 mM potassium dihydrogenphosphate, 50 mM boric acid, 1 mM CaCl2, 0.01% Triton X-100 adjusted to pH 2.5, 3.5, 4.5, 5.5, 6.5, 7.5, 8.5 or 9.5 with HCl/NaOH) and 25 μl purified enzyme diluted to about 0.5-2 μg/ml in water. The mixture was incubated 15 min at 37° C., insoluble material was removed by centrifugation, and absorbance in the supernatant was measured at 590 nm.

[6] = Degradation of MeGal4, products by HPAE-PAD; assay type: biochemical; conditions: in words; buffer, pH and temperature per enzyme
Experimental: as §1

| Molecule | Activity on Gal2 [1] | Products of Gal4 (galactotetraose) degradation [2] | Initial products from lupin galactan [3] | Activity on Gal3, products [4] | Galactanase activity at pH 2.5 ([5]; pH 2.5) [%] | Galactanase activity at pH 3.5 ([5]; pH 3.5) [%] | Galactanase activity at pH 4.5 ([5]; pH 4.5) [%] | Galactanase activity at pH 5.5 ([5]; pH 5.5) [%] | Galactanase activity at pH 6.5 ([5]; pH 6.5) [%] | Galactanase activity at pH 7.5 ([5]; pH 7.5) [%] | Galactanase activity at pH 8.5 ([5]; pH 8.5) [%] | Galactanase activity at pH 9.5 ([5]; pH 9.5) [%] | Products from MeGal4 [6] |
| --- | --- | --- | --- | --- | --- | --- | --- | --- | --- | --- | --- | --- | --- |
| B1 | Neither of the enzymes HIGAL, MTGAL, AAGAL or BLGAL had any detectable activity | about equimolar amounts of galactose, galactobiose and galactotriose | initially produces a more homogeneous mixture of galactooligomers | degraded Gal3 to Gal2 and Gal | 73 | 100 | 83 | 47 | 32 | 0 | 2 | 0 |  |
| B2 | Neither of the enzymes HIGAL, MTGAL, AAGAL or BLGAL had any detectable activity | degrades galactotetraose mainly to galactose and galactotriose | initial main product is galactotetraose with both smaller and larger oligomers also present | no visible activity on Gal3 after 24 hours |  |  |  |  |  |  |  |  | MeGal and Gal3 |
